# Target: CPM-PH-PLCß2 (N-terminal PH domain of PLCβ2)
# Assay: other fluorescence titration; unlabelled γ-synuclein added in steps to CPM-labelled protein in solution (2 nM CPM-PLCβ2, also 0.5 nM); increase of CPM intensity; 20 mM Hepes pH 7.2, 160 mM NaCl, 1 mM DTT
# Human γ-synuclein, sequence (O76070 whole entry): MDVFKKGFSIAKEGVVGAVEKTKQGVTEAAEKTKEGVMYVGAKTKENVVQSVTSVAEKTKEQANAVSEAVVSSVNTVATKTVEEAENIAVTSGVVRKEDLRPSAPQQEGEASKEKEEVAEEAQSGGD
# CPM-PH-PLCß2 (N-terminal PH domain of PLCβ2), sequence (Q00722 whole entry, the tested form may be a part): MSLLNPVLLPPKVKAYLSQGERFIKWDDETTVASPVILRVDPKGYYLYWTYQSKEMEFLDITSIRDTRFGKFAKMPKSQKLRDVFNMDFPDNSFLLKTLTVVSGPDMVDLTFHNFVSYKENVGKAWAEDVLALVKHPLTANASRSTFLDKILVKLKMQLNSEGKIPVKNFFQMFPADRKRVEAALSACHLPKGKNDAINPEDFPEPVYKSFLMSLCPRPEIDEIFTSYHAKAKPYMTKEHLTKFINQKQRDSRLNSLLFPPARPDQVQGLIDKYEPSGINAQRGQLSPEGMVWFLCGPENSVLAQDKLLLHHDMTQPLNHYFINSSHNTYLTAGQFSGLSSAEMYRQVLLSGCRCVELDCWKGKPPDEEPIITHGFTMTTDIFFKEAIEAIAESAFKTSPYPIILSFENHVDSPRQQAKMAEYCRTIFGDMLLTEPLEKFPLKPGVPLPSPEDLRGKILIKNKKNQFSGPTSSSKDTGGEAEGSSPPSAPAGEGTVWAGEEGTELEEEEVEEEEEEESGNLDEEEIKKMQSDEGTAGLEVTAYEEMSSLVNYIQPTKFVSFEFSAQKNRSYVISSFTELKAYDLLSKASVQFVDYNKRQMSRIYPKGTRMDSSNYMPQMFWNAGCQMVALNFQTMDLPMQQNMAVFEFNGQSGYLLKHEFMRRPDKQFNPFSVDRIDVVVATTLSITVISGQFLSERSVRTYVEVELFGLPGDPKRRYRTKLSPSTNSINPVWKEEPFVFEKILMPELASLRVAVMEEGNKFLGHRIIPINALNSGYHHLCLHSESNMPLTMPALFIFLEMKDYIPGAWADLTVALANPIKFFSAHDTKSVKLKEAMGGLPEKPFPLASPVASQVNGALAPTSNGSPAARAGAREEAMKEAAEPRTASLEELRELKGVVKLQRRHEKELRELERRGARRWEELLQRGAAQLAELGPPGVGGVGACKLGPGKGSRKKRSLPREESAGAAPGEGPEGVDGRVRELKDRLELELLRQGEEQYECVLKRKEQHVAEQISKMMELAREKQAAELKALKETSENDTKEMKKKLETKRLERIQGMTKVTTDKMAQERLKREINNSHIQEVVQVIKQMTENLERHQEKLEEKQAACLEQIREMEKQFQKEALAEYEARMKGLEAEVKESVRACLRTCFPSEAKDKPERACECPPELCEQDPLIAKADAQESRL
substance,measurement,value
Human γ-synuclein (from UniProt O76070 1-127) (natural protein),fold weaker affinity than for full length CPM-PLCβ2,> 50 fold

# Reference: publication PMC3414502
